Consider eight substances from patent publication US7109170B2, “Region of factor IXa protease domain that interacts with factor VIIIa and methods therefor” (Saint Louis University, priority 1999, dated 2006).

The target of one assay is T1, factor XIa/Ca2+ (Homo sapiens, UniProt P03951).
T1 construct: purchased Enzyme Research Laboratories (South Bend, Ind.)
The assay is described as follows: activation of factor IX mutants by factor XIa/Ca2+ (SDS gel). The format is biochemical. Particulars: analyzed by SDS gel electrophoresis. The procedure: The rates of activation of the protease domain factor IX mutants by VIIa/TF and by Factor Xla/Ca^2+ was also determined, under conditions described in Mathur et al., 1997, supra, either by VIIa/TF/Ca^2+ or by factor Xla/Ca^2+. The rates of the mutants were similar to that of IXNP as analyzed by SDS gel electrophoresis.
Various DEGR-ck-inhibited factor IXa proteins were prepared for these experiments as follows. IXNP, IXWT, and each mutant factor IX at 200 μg/ml was activated by factor XIa (2 μg/ml) for 90 min. in TBS, pH 7.4 (0.05 M Tris, 0.15 M NaCl, pH 7.4) containing 5 mM Ca^2+. […] DEGR-IXaNP, DEGR-IXaWT, and various DEGR-IXa mutant proteins were prepared as described in Mathur et al., 1997, supra, and free DEGR-ck was removed as described in Sabharwal et al., 1995, supra and Krishnaswamy, 1992, J. Biol. Chem. 267, 23696–23706.

For assay [1], the target named is mouse monoclonal antibody (mAb) that inhibits the interaction of factor IXa with factor VIIIa. The assay is described as follows: binding of IX proteins to mAb that interferes with IXa:VIIIa interaction (coagulant based / competition assay).
Source text: The ability of the IX mutant proteins to bind to a mAb (Bajaj et al., 1985, supra) which interferes with the interaction of IXa and VIIIa was studied using a coagulant based assay as described in Usharani et al., 1985, J. Clin. Invest.
Assay [2] relates to Factor IX deficient plasma. The assay is described as follows: coagulant activity of XIa-activated IXa proteins. In kind it is biochemical.
Assay [3] addresses T2, factor X (Homo sapiens, UniProt P00742). The assay is described as follows: factor X activation in complete intrinsic Tenase system (IXa, Ca2+, phospholipid, VIIIa). The arrangement: Normal human plasma factor IX (IXNP) and factor X were isolated as described in Bajaj and Birktoft; from tissue; host or cells: human plasma (factor X); factor VIII obtained from Dr. Leon Hoyer, American Red Cross. The format is biochemical. Particulars: 70 pM VIIIa, 0.5 nM IXa, 15 nM X, phospholipid present. The protocol:
(§1) The ability of each activated mutant to activate factor X in the presence and absence of phospholipid and factor VIIIa was determined as follows. The activation was carried out at 37° C. in a 50 μl reaction volume, in TBS/BSA pH 7.4, for various time periods. At the end of the incubation time period, each reaction mixture received 1 μl of 0.5 M EDTA to stop further generation of factor Xa. A 40 μL aliquot was then added to 0.1 ml quartz cuvette containing S-2222 in 75 μL of TBS/BSA, pH 7.4. The final concentration of S-2222 was 100 μM. The p-nitroaniline release was measured continuously (ΔA405/min) for up to 20 min (Sabharwal et al., 1995 supra; Sabharwal et al., 1997, supra). Factor Xa generated was calculated from a standard curve constructed using factor Xa prepared from insolubilized Russell's viper venom.
(§2) Factor X activation measurements were made under four experimental regimes. In one, Ca^2+ and phospholipid were present. In this system activation was carried out for 5–15 minutes and the concentration of each IXa protein was 20 nM, phospholipid was 25 μM, and factor X was 100 nM. In the second regime, Ca^2+, phospholipid and factor VIIIa were present. […] In the third regime, only Ca^2+ was present. Here, activation was carried out for 2–20 min and concentration of each IXa protein was 400 nM and factor X was 1 μM. Finally, in the fourth regime, Ca^2+ and VIIIa were present. Here, activation was carried out for 15–120 sec and the concentration of each IXa protein was 2 μM, VIIIa was 14 nM, and factor X was 400 nM.
(§3) In all of the above factor X activation experiments, the incubation times chosen were those in which the factor Xa generated was always less than 10 nM. This precautionary measure was taken to prevent activation of factor X by the generated factor Xa (see, e.g., Link. and Castellino, 1982, Arch Biochem. Biophys. 215, 215–221). Further, in those incubation mixtures which contained […], control experiments were also performed in which factor VIIIa was omitted. […] In the presence of factor VIIIa, 10 μM phospholipid was used based upon previous observations (Mathur et al., 1997, supra; van Dieijen et al., 1981, J. Biol. Chem. 256, 3433–3442). The concentrations of factor X selected for each set of reaction conditions are those which are below or at the Km values (van Dieijen et al., supra; Fay and Koshibu, 1998, J Biol. Chem. 273, 19049–19054). In this region of the Michaelis-Menton curve, the rate of formation of factor Xa is proportional to the substrate factor X and therefore to the affinity of the factor IXa enzyme for factor X.
Next, the activation of factor X in a complete intrinsic Tenase system (IXa, Ca^2+, phospholipid, VIIIa) was studied.
Target sequence in this assay (P00742 183-488 limits assumed, one chain of several): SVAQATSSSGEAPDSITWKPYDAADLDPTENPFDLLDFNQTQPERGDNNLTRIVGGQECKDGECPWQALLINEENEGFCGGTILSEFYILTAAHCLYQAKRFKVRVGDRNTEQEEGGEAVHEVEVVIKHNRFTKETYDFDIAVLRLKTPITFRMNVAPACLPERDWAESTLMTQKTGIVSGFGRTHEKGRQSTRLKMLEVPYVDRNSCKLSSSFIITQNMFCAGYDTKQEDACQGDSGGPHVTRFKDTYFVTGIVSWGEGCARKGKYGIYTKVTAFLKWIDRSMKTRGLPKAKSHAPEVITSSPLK
Target sequence in this assay (P00742 41-179 limits assumed, one chain of several): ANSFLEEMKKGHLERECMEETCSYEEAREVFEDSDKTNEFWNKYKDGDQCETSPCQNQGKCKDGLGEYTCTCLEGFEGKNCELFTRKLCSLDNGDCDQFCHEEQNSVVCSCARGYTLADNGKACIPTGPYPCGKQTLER

Assay [4] concerns the target T2, factor X. As to the kind of experiment: factor X activation by IXa proteins, Ca2+ and VIIIa, no phospholipid. In kind it is biochemical. Further details: Normal human plasma factor IX (IXNP) and factor X were isolated as described in Bajaj and Birktoft; from tissue; host or cells: human plasma (factor X); factor VIII obtained from Dr. Leon Hoyer, American Red Cross. Conditions: 14 nM VIIIa, 400 nM factor X. The protocol:
as §1, §2, §3
Target sequence in this assay (P00742 183-488 limits assumed, one chain of several): as the sequence (P00742 183-488 limits assumed, one chain of several) above
Target sequence in this assay (P00742 41-179 limits assumed, one chain of several): as the sequence (P00742 41-179 limits assumed, one chain of several) above

Assay [5] deals with T3, factor VIIIa (Homo sapiens, UniProt P00451).
T3 construct: purchased Dr. Leon Hoyer (American Red Cross, Rockville, Md.)
T3 sequence (P00451 20-759 limits assumed): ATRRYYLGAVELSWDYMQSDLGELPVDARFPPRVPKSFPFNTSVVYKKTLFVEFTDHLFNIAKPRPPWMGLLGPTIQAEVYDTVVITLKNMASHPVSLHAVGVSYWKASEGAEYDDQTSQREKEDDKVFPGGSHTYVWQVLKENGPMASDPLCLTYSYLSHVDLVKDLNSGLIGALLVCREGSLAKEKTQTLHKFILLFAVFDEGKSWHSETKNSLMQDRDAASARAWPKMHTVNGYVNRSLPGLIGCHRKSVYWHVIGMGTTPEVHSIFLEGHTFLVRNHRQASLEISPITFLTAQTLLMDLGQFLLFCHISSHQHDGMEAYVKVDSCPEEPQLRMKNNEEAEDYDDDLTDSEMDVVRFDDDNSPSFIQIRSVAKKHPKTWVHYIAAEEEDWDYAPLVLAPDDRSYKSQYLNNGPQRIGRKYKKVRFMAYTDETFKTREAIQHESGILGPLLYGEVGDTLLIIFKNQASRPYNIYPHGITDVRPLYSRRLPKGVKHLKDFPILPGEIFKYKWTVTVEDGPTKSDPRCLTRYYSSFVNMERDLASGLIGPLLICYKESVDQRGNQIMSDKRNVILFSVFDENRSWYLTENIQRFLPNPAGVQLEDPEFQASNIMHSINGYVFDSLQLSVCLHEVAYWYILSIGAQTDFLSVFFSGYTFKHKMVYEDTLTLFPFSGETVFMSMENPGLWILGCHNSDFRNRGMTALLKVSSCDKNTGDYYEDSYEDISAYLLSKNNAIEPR
T3 sequence (P00451 1668-2351 limits assumed): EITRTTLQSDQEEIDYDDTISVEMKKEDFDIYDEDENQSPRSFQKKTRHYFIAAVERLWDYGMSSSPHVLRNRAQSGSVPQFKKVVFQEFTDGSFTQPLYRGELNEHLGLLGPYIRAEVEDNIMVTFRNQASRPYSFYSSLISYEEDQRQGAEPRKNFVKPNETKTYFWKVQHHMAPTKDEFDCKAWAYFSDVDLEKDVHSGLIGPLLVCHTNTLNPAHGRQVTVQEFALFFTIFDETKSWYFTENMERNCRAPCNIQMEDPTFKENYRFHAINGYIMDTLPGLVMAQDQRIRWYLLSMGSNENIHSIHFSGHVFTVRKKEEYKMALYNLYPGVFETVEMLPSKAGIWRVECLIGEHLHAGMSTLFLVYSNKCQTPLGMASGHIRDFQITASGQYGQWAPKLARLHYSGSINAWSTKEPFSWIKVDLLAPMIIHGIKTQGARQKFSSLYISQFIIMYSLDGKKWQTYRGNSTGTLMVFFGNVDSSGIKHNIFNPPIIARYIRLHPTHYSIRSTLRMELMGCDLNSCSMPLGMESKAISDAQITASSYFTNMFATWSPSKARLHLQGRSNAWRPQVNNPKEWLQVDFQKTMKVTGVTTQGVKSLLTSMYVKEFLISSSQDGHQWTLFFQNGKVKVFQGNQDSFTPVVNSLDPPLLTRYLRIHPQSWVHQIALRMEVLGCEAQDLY
The assay is described as follows: inhibition of Xa generation by active site-blocked (DEGR) IXa proteins, presence of phospholipid (Kd,app for VIIIa). In kind it is biochemical. The procedure:
(§4) Apparent Kds of factor VIIIa binding to various active site-blocked factor IXa proteins were determined from inhibition experiments as detailed in Mathur et al., 1997, supra. […] Reactions were carried out for 2 min and the rates of factor X activation were measured as outlined above.
(§5) Various DEGR-ck-inhibited factor IXa proteins were prepared for these experiments as follows. IXNP, IXWT, and each mutant factor IX at 200 μg/ml was activated by factor XIa (2 μg/ml) for 90 min. in TBS, pH 7.4 (0.05 M Tris, 0.15 M NaCl, pH 7.4) containing 5 mM Ca^2+.
(§6) Enzymol. 74, 481–508 given below:
(§7) [formula] where y is the rate of Xa formation in the presence of a given concentration of DEGR-IXa protein represented by x, a is the maximum rate of Xa formation in the absence of DEGR-IXa, and s is the slope factor. Each point was weighted equally and the data were fitted to Equation 1 using the nonlinear regression analysis program obtained from Erithacus Software (GraFit). […] To obtain the Kd,app values for the interaction of DEGR-IXa proteins with factor VIIIa, the following equation was used, as described by Cheng and Prusoff, 1973, Biochem. Pharmacol. 22, 3099–3108 and further discussed by Craig, 1993, Trends Pharmacol. Sci. 6, 68–71.

Assay [6] has as its target T3, factor VIIIa. As to the kind of experiment: inhibition of Xa generation by active site-blocked (DEGR) IXa proteins, absence of phospholipid (Kd,app for VIIIa). The format is biochemical. The procedure:
as §4, §5, §6, §7

Assay [7] has as its target T2, factor X. As to the kind of experiment: factor X activation by IXa proteins, Ca2+ and phospholipid, without VIIIa. The format is biochemical. The arrangement: Normal human plasma factor IX (IXNP) and factor X were isolated as described in Bajaj and Birktoft; from tissue; host or cells: human plasma. Particulars: no VIIIa, 20 nM IXa, 25 μM phospholipid, 100 nM X. The protocol:
as §1
(§8) Factor X activation measurements were made under four experimental regimes. In one, Ca^2+ and phospholipid were present. In this system activation was carried out for 5–15 minutes and the concentration of each IXa protein was 20 nM, phospholipid was 25 μM, and factor X was 100 nM. In the second regime, Ca^2+, phospholipid and factor VIIIa were present. […] In the third regime, only Ca^2+ was present. Here, activation was carried out for 2–20 min and concentration of each IXa protein was 400 nM and factor X was 1 μM. Finally, in the fourth regime, Ca^2+ and VIIIa were present. […]
Target sequence in this assay (P00742 183-488 limits assumed): as the sequence (P00742 183-488 limits assumed, one chain of several) above
Target sequence in this assay (P00742 41-179 limits assumed): as the sequence (P00742 41-179 limits assumed, one chain of several) above

Assay [8] has as its target T2, factor X. As to the kind of experiment: factor X activation by IXa proteins, Ca2+ only. The format is biochemical. The arrangement: Normal human plasma factor IX (IXNP) and factor X were isolated as described in Bajaj and Birktoft; from tissue; host or cells: human plasma. Particulars: 1 μM X, 400 nM IXa, no phospholipid, no VIIIa. The protocol:
as §1, §8
Target sequence in this assay (P00742 183-488 limits assumed): as the sequence (P00742 183-488 limits assumed, one chain of several) above
Target sequence in this assay (P00742 41-179 limits assumed): as the sequence (P00742 41-179 limits assumed, one chain of several) above

The mark [9] stands for this setting: active site-blocked (DEGR) IXa proteins, no phospholipid.

T1 sequence (P03951 388-625 limits assumed): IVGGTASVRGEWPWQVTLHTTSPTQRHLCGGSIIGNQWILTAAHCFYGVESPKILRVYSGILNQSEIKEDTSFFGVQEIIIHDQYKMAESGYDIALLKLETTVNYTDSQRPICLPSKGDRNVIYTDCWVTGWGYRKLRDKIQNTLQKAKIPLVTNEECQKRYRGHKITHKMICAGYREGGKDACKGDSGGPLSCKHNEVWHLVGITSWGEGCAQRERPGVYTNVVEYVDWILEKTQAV
T1 sequence (P03951 19-387 limits assumed): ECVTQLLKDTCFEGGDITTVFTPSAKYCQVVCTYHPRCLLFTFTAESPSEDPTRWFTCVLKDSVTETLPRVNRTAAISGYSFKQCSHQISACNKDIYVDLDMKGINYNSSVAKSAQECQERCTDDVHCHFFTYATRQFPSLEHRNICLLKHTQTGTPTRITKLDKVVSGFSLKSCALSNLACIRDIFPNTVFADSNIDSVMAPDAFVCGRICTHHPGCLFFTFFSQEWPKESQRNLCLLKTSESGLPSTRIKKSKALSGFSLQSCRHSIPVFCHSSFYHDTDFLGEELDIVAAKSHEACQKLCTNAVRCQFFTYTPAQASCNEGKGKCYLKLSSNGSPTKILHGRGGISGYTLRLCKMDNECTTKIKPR

Consider “IXPCEGF1: factor IX in which EGF1 residues 52–85 are replaced by residues 51–92 of protein C”, for which the “rate of activation by factor XIa/Ca2+” value with factor XIa/Ca2+ was “readily activated”.
Take “IXQ50P: factor IX mutant that lacks the EGF1 domain Ca2+ binding site”: in [1], the Kd was about 15 nM. The “rate of activation by factor XIa/Ca2+” value with factor XIa/Ca2+ is “readily activated”.
Take “IXaL330I: activated factor IX mutant L330I”: the “coagulant activity as compared to IXaNP” value in [2] is listed as about 7%. Moreover, in the assay with factor X [3], the “X-activation rate, PL-plus system” value is given as 0.95 ± 0.07 nM/min. The “X-activation rate, PL-minus system” value with factor X [4] is on record as 0.94 ± 0.03 nM/min.
On to “IXaPCEGF1: activated factor IX with EGF1 domain replaced by that of protein C”, for which the Kd with factor VIIIa [5] (active site-blocked (DEGR) IXa proteins, 10 μM phospholipid, read-out: Kd, app for interaction with factor VIIIa, PL-plus system) was 5.71 ± 0.82 nM; in the assay with factor VIIIa [6] (active site-blocked (DEGR) IXa proteins, no phospholipid, read-out: Kd, app for interaction with factor VIIIa, PL-minus system), 210 ± 10 nM. Also, the “Kd, app for interaction with factor VIIIa, PL-minus system” value in the assay with factor VIIIa [6] (setting [9]) was “indistinguishable from that of normal IXa”. For the same substance, the “rate of factor Xa generation” value in the assay with factor X [7] was found to be 0.06 nM/min. Also, in the assay with factor X [8], the “rate of factor X activation, Ca2+ only” value is about 0.48 nM/min.
On to “IXaQ50P: activated EGF1 domain mutant Q50P of factor IX”, for which, in the assay with factor VIIIa [6] (setting [9]), the “Kd, app for interaction with factor VIIIa, PL-minus system” value is “indistinguishable from that of normal IXa”. Further, in the assay with factor X [7], the “rate of factor Xa generation” value is recorded as 0.07 nM/min. The “rate of factor X activation, Ca2+ only” value with factor X [8] was about 0.39 nM/min.
With “IXaR338Q: activated factor IX mutant R338Q”, the “coagulant activity as compared to IXaNP” value in [2] is about 80%. Moreover, the “X-activation rate, PL-minus system” value in the assay with factor X [4] amounted to 2.22 ± 0.15 nM/min.
As to “IXaT335A: activated factor IX mutant T335A”, the “coagulant activity as compared to IXaNP” value in assay [2] is on record as about 35%. Also, the “X-activation rate, PL-plus system” value was 1.92 ± 0.11 nM/min in the assay with factor X [3] and about 1.9 nM/min with factor X [3] (listed as IXaI335A). The “X-activation rate, PL-minus system” value with factor X [4] is recorded as 1.83 ± 0.18 nM/min.
Take “protein C: Purified human protein C, control protein [reference compound]”: the “competition with IXa in binding to VIIIa / interaction with VIIIa” value with factor VIIIa [5] (presence of phospholipid) and in the assay with factor VIIIa [6] (absence of phospholipid) was “neither protein C nor DEGR-activated protein C competed with IXa in binding to VIIIa” each time.
